Target: recombinant SARS-CoV-2 RBD of original WT strain (SARS-CoV-2) (UniProt P0DTC2)
Experiment: SPR

Substance: REGN-10933
- Kd: 576 pM

Reference: article PMC9822811
